Measurements published in IntAct's records for PubMed 24863370.

B1: Calvin cycle protein CP12, chloroplastic (Chlamydomonas reinhardtii), A6Q0K5 (parent)
chain: MMLTKSVVISRPAVRPVSTRRAVVVRASGQPAVDLNKKVQDAVKEAEDACAKGTSADCAVAWDTVEELSAAVSHKKDAVKADVTLTDPLEAFCKDAPDADECRVYED
partner: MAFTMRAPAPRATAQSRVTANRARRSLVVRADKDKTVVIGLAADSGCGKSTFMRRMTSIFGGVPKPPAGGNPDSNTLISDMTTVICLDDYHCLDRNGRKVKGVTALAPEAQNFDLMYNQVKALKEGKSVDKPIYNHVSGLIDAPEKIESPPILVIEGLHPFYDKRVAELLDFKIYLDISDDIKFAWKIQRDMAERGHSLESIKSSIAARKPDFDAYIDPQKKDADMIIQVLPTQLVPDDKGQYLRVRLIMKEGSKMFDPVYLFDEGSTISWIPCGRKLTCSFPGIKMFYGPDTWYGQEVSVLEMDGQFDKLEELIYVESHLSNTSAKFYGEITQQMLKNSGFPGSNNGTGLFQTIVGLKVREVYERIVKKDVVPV
B2: Calvin cycle protein CP12, chloroplastic (Chlamydomonas reinhardtii), A6Q0K5 (parent)
chain: B1 chain
partner: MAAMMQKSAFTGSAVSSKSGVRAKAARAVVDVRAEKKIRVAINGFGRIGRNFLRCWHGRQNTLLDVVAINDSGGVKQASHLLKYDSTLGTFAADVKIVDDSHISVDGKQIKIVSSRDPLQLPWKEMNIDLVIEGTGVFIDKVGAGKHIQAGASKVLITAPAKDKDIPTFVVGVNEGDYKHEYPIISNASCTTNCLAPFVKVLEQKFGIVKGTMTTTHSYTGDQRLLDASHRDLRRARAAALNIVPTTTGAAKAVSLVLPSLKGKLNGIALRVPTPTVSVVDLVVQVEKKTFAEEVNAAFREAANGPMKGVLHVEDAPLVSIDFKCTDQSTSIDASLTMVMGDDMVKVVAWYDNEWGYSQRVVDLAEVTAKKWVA

Variants of: B1
Conditions: with kppr_chlre PRKA

Variant	effect of a mutation on the interaction
MMLTKSVVISRPAVRPVSTRRAVVVRASGQSAVDLNKKVQDAVKEAEDACAKGTSADCAVAWDTVEELSAAVSHKKDAVKADVTLTDPLEAFCKDAPDADECRVYED	decreasing interaction

Variants of: B2
Conditions: with g3pa_chlre GAPA

Variant	effect of a mutation on the interaction
MMLTKSVVISRPAVRPVSTRRAVVVRASGQPAVDLNKKVQDAVKEAEDACAKGTSADCAVAWDTVEELSAAVSHSKDAVKADVTLTDPLEAFCKDAPDADECRVYED	decreasing interaction
